Positions count from the first letter of the chain named. Blank lines part the entries; values can stand above or below the binder they belong to. Ends that are not written are not given here.
Molecular target: IGF1 receptor (IGF1R) (UniProt P08069)
Assay: method not stated; in the absence of glucose

Kd: 30.4 nM
B1: SEQ ID NO: 5 (ligand)
chain: FVDQHLCGSHLVEALYLVCGERGFFYTPKTYDGKGIVEQCCTSICSLYQLENYCG
modifications: ends and bridges not checked; cysteine pairing not given here

Kd: 26.8 nM
B2: SEQ ID NO: 7 (ligand)
chain: B1 chain with D3G
modifications: ends and bridges not checked; cysteine pairing not given here

Reference: patent US20240343773A1
